How the values were obtained:
LFA-1 = molecular target: T1, LFA-1 (Homo sapiens, UniProt P05107+P20701); test: Adherence of COS cells expressing ICAM-1 or ICAM-1 mutants to plastic-bound purified LFA-1; assay type: cell-based; details: for LFA-1 Binding %: COS cells expressing ICAM-1 mutant adhering to LFA-1 coated plastic, normalized for percent of cells expressing mutant and for wild type binding, mean; for decrease in LFA-1 binding: COS cells expressing the mutant, relative to wild type
T1 construct: endogenous in cells
T1 sequence (P20701 26-1170): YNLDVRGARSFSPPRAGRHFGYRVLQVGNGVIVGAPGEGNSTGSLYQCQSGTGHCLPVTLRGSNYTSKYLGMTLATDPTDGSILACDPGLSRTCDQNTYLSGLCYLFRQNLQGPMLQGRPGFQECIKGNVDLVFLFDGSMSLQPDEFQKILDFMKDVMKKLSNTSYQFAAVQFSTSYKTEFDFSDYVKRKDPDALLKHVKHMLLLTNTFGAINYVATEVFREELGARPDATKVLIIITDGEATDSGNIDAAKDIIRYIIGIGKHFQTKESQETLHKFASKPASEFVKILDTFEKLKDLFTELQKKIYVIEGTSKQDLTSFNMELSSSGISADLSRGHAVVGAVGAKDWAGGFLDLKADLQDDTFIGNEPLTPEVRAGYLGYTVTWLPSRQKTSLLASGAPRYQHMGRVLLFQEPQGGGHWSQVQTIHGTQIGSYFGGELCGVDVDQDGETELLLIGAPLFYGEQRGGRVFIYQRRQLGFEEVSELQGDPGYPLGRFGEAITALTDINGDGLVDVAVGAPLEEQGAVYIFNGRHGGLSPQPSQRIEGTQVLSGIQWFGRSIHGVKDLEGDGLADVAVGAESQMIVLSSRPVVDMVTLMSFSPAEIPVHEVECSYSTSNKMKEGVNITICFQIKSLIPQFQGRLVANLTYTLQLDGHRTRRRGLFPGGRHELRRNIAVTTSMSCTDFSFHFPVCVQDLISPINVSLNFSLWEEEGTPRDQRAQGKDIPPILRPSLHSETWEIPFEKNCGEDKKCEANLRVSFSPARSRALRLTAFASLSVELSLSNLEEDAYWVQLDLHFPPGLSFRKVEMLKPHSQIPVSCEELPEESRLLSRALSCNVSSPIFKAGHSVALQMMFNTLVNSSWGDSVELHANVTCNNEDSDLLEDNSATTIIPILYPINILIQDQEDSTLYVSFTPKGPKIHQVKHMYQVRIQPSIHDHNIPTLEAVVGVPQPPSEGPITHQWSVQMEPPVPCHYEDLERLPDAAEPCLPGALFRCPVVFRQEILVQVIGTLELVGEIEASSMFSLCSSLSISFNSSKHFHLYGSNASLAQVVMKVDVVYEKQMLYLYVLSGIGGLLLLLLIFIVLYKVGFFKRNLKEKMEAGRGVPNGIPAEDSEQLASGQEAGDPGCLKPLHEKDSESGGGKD
T1 sequence (P05107 23-769): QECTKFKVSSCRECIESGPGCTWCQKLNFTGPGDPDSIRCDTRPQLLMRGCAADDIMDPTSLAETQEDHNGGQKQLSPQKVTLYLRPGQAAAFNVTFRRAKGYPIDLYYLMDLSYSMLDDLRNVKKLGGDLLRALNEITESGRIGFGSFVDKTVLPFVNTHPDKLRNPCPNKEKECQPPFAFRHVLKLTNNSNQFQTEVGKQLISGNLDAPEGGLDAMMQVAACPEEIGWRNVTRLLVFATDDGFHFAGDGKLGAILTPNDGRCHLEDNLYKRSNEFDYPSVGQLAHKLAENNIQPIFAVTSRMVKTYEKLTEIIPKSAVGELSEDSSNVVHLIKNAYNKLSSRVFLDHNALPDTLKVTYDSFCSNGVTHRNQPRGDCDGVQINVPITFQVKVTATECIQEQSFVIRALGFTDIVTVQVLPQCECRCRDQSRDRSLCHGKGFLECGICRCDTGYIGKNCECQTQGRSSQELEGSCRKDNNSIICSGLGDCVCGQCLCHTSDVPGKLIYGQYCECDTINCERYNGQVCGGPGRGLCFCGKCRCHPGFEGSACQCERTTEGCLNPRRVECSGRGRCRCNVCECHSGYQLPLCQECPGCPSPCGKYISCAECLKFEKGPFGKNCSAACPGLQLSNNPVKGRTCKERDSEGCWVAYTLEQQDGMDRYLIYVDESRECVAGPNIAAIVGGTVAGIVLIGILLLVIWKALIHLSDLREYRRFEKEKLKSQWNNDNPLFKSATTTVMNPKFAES

HRV14 = test: Binding of [^35S]-Met labeled HRV14 to COS cells expressing ICAM-1 mutants; assay type: cell-based, human rhinovirus 14; details: for HRV Binding %: 35S met-labeled HRV14 binding to COS cells expressing ICAM-1 mutant, normalized for percent of cells expressing mutant and for wild type binding, mean
CL203 mAb = test: Indirect immunofluorescence flow cytofluorometry: mAb CL203 binding to COS cells expressing ICAM-1 mutants (SLFI, % WT); assay type: cell-based; details: for binding of MAb CL203 (in words): COS cells expressing the mutant, relative to wild type; for Cl203 % WT (SLFI): SLFI of CL203 for mutant normalized to wild type CL203 SLFI, level of expression
Method: (§1) For HRV binding studies, COS cells were reseeded in a 24 well plate. One day later, the confluent monolayer was washed twice with 1 ml of RPMI 1640/10 mM MgCl2/25 mM Hepes pH 7.3 (rhinovirus-14 buffer). Transfected COS cells were labeled with 51Cr for binding to LFA-1 coated plastic as previously described (Staunton, D. E., et al., Nature 339:61-64 (1989). Immunoprecipitation and indirect immunofluorescence was performed using ICAM-1 MAb RR1/1 (Rothlein, R., et al., J. Immunol. 137:1270-1274 (1986)), R6.5 (Rothlein, R., et al., J. Immunol. 141:1665-1669 (1988)), LB-1 (Clark, E. A., et al., Hum. Immunol. 16:100-113 (1986)) and CL203 (Maio, M., J. Immunol. 143:181-188 (1989), all of which references are incorporated herein by reference).
(§2) Binding of RR1, R6.5, and LB-2 mAb was normalized to binding of CL203 mAb using Specific Linear Fluorescence Intensity (SLFI): % CL203=(mAbSLFI)×100)/CL203mABSLFI
(§3) In Table 25, the notation for the mutations uses the one-letter code for the wild-type sequence followed by a slash and the one-letter code for the corresponding mutant sequence. The position of the first amino acid within the sequence is indicated. Wild type residues precede the slash followed by the residues they were substituted for in the mutant. COS cells expressing ICAM-1 mutants were tested for adherence to LFA-1 coated plastic and for binding 35S met-labeled HRV14. LFA-1 and HRV14 binding is normalized for percent of cells expressing mutant ICAM-1 and for binding of wild type expressing cells. Binding is presented as mean and standard error (SE) for multiple experiments (n). Effects of two-fold or greater were reproducible in LFA-1, HRV and mAb binding assays and thus considered significant (bold and underlined). The specific linear fluorescence intensity (SLFI) of CL203 for each mutant is normalized to that of wild type CL203 SLFI (% WT) as discussed above. The SLFI of RR1/1, R6.5 and LB-2 SLFI is normalized to the CL203 SLFI of the mutant (% CL203) as described above.

RR1/1 mAb = test: Indirect immunofluorescence flow cytofluorometry: mAb RR1/1 binding to COS cells expressing ICAM-1 mutants (SLFI, % CL203); assay type: cell-based; details: SLFI normalized to CL203 SLFI of the mutant
Method: as §1, §2, §3

R6.5 mAb = test: Indirect immunofluorescence flow cytofluorometry: mAb R6.5 binding to COS cells expressing ICAM-1 mutants (SLFI, % CL203); assay type: cell-based; details: SLFI normalized to CL203 SLFI of the mutant
Method: as §1, §2, §3

LB-2 mAb = test: Indirect immunofluorescence flow cytofluorometry: mAb LB-2 binding to COS cells expressing ICAM-1 mutants (SLFI, % CL203); assay type: cell-based; details: SLFI normalized to CL203 SLFI of the mutant
Method: as §1, §2, §3

Row | Molecule | LFA-1 Binding % (LFA-1) | HRV Binding % (HRV14) | binding of MAb CL203 (in words) (CL203 mAb) | Cl203 % WT (SLFI) (CL203 mAb) | SLFI (% CL203) RR/1 (RR1/1 mAb) | SLFI (% CL203) R6.5 (R6.5 mAb) | SLFI (% CL203) LB-2 (LB-2 mAb) | decrease in LFA-1 binding (LFA-1) | HRV14 binding of ICAM-1 mutant (in words) (HRV14; COS cells expressing the mutant, relative to wild type)
1 | Q27/L: ICAM-1 substitution mutant, Q27 to L (protein, UniProt P05362 28-532, looked up, variant Q27L) Intercellular adhesion …: QTSVSPSKVILPRGGSVLVTCSTSCDLPKLLGIETPLPKKELLLPGNNRKVYELSNVQEDSQPMCYSNCPDGQSTAKTFLTVYWTPERVELAPLPSWQPVGKNLTLRCQVEGGAPRANLTVVLLRGEKELKREPAVGEPAEVTTTVLVRRDHHGANFSCRTELDLRPQGLELFENTSAPYQLQTFVLPATPPQLVSPRVLEVDTQGTVVCSLDGLFPVSEAQVHLALGDQRLNPTVTYGNDSFSAKASVSVTAEDEGTQRLTCAVILGNQSQETLQTVTIYSFPAPNVILTKPEVSEGTEVTVKCEAHPRAKVTLNGVPAQPLGPRAQLLLKATPEDNGRSFSCSATLEVAGQLIHKNQTRELRVLYGPRLDERDCPGNWTWPENSQQTPMCQAWGNPLPELKCLKDGTFPLPIGESVTVTRDLEGTYLCRARSTQGEVTRKVTVNVLSPRYEIVIITVVAAAVIMGTAGLSTYLYNRQRKIKKYRLQQAQKGTPMKPNTQATPP | 37% | 57% | specifically reduced level of expression | 33 % WT | 75 % CL203 | 75 % CL203 | 125 % CL203 |  | 
2 | N156/E: ICAM-1 domain 2 substitution mutant affecting an N-linked glycosylation site (protein, UniProt P05362 28-532, looked up, variant N156E) Intercellular adhesion …: QTSVSPSKVILPRGGSVLVTCSTSCDQPKLLGIETPLPKKELLLPGNNRKVYELSNVQEDSQPMCYSNCPDGQSTAKTFLTVYWTPERVELAPLPSWQPVGKNLTLRCQVEGGAPRANLTVVLLRGEKELKREPAVGEPAEVTTTVLVRRDHHGAEFSCRTELDLRPQGLELFENTSAPYQLQTFVLPATPPQLVSPRVLEVDTQGTVVCSLDGLFPVSEAQVHLALGDQRLNPTVTYGNDSFSAKASVSVTAEDEGTQRLTCAVILGNQSQETLQTVTIYSFPAPNVILTKPEVSEGTEVTVKCEAHPRAKVTLNGVPAQPLGPRAQLLLKATPEDNGRSFSCSATLEVAGQLIHKNQTRELRVLYGPRLDERDCPGNWTWPENSQQTPMCQAWGNPLPELKCLKDGTFPLPIGESVTVTRDLEGTYLCRARSTQGEVTRKVTVNVLSPRYEIVIITVVAAAVIMGTAGLSTYLYNRQRKIKKYRLQQAQKGTPMKPNTQATPP | 60% | 107% |  | 182 % WT | 84 % CL203 | 95 % CL203 | 95 % CL203 | approximately two-fold | 
3 | E90/K: ICAM-1 substitution mutant, E90 to K (protein, UniProt P05362 28-532, looked up, variant E90K) Intercellular adhesion …: QTSVSPSKVILPRGGSVLVTCSTSCDQPKLLGIETPLPKKELLLPGNNRKVYELSNVQEDSQPMCYSNCPDGQSTAKTFLTVYWTPERVKLAPLPSWQPVGKNLTLRCQVEGGAPRANLTVVLLRGEKELKREPAVGEPAEVTTTVLVRRDHHGANFSCRTELDLRPQGLELFENTSAPYQLQTFVLPATPPQLVSPRVLEVDTQGTVVCSLDGLFPVSEAQVHLALGDQRLNPTVTYGNDSFSAKASVSVTAEDEGTQRLTCAVILGNQSQETLQTVTIYSFPAPNVILTKPEVSEGTEVTVKCEAHPRAKVTLNGVPAQPLGPRAQLLLKATPEDNGRSFSCSATLEVAGQLIHKNQTRELRVLYGPRLDERDCPGNWTWPENSQQTPMCQAWGNPLPELKCLKDGTFPLPIGESVTVTRDLEGTYLCRARSTQGEVTRKVTVNVLSPRYEIVIITVVAAAVIMGTAGLSTYLYNRQRKIKKYRLQQAQKGTPMKPNTQATPP | 34% | 50% | specifically reduced level of expression | 29 % WT | 100 % CL203 | 123 % CL203 | 108 % CL203 |  | 
4 | Q73/H: ICAM-1 substitution mutant, Q73 to H (protein, UniProt P05362 28-532, looked up, variant Q73H) Intercellular adhesion …: QTSVSPSKVILPRGGSVLVTCSTSCDQPKLLGIETPLPKKELLLPGNNRKVYELSNVQEDSQPMCYSNCPDGHSTAKTFLTVYWTPERVELAPLPSWQPVGKNLTLRCQVEGGAPRANLTVVLLRGEKELKREPAVGEPAEVTTTVLVRRDHHGANFSCRTELDLRPQGLELFENTSAPYQLQTFVLPATPPQLVSPRVLEVDTQGTVVCSLDGLFPVSEAQVHLALGDQRLNPTVTYGNDSFSAKASVSVTAEDEGTQRLTCAVILGNQSQETLQTVTIYSFPAPNVILTKPEVSEGTEVTVKCEAHPRAKVTLNGVPAQPLGPRAQLLLKATPEDNGRSFSCSATLEVAGQLIHKNQTRELRVLYGPRLDERDCPGNWTWPENSQQTPMCQAWGNPLPELKCLKDGTFPLPIGESVTVTRDLEGTYLCRARSTQGEVTRKVTVNVLSPRYEIVIITVVAAAVIMGTAGLSTYLYNRQRKIKKYRLQQAQKGTPMKPNTQATPP | 12% | 117% |  | 139 % WT | 21 % CL203 | 80 % CL203 | 80 % CL203 | 10 fold | weak or a non-detectable affect on HRV binding
5 | Q73/T: ICAM-1 substitution mutant, Q73 to T (protein, UniProt P05362 28-532, looked up, variant Q73T) Intercellular adhesion …: QTSVSPSKVILPRGGSVLVTCSTSCDQPKLLGIETPLPKKELLLPGNNRKVYELSNVQEDSQPMCYSNCPDGTSTAKTFLTVYWTPERVELAPLPSWQPVGKNLTLRCQVEGGAPRANLTVVLLRGEKELKREPAVGEPAEVTTTVLVRRDHHGANFSCRTELDLRPQGLELFENTSAPYQLQTFVLPATPPQLVSPRVLEVDTQGTVVCSLDGLFPVSEAQVHLALGDQRLNPTVTYGNDSFSAKASVSVTAEDEGTQRLTCAVILGNQSQETLQTVTIYSFPAPNVILTKPEVSEGTEVTVKCEAHPRAKVTLNGVPAQPLGPRAQLLLKATPEDNGRSFSCSATLEVAGQLIHKNQTRELRVLYGPRLDERDCPGNWTWPENSQQTPMCQAWGNPLPELKCLKDGTFPLPIGESVTVTRDLEGTYLCRARSTQGEVTRKVTVNVLSPRYEIVIITVVAAAVIMGTAGLSTYLYNRQRKIKKYRLQQAQKGTPMKPNTQATPP | 40% | 133% |  | 218 % WT | 71 % CL203 | 86 % CL203 | 114 % CL203 | two-fold | 
6 | N118/Q: ICAM-1 domain 2 substitution mutant affecting an N-linked glycosylation site (protein, UniProt P05362 28-532, looked up, variant N118Q) Intercellular adhesion …: QTSVSPSKVILPRGGSVLVTCSTSCDQPKLLGIETPLPKKELLLPGNNRKVYELSNVQEDSQPMCYSNCPDGQSTAKTFLTVYWTPERVELAPLPSWQPVGKNLTLRCQVEGGAPRAQLTVVLLRGEKELKREPAVGEPAEVTTTVLVRRDHHGANFSCRTELDLRPQGLELFENTSAPYQLQTFVLPATPPQLVSPRVLEVDTQGTVVCSLDGLFPVSEAQVHLALGDQRLNPTVTYGNDSFSAKASVSVTAEDEGTQRLTCAVILGNQSQETLQTVTIYSFPAPNVILTKPEVSEGTEVTVKCEAHPRAKVTLNGVPAQPLGPRAQLLLKATPEDNGRSFSCSATLEVAGQLIHKNQTRELRVLYGPRLDERDCPGNWTWPENSQQTPMCQAWGNPLPELKCLKDGTFPLPIGESVTVTRDLEGTYLCRARSTQGEVTRKVTVNVLSPRYEIVIITVVAAAVIMGTAGLSTYLYNRQRKIKKYRLQQAQKGTPMKPNTQATPP | 54% | 110% |  | 139 % WT | 93 % CL203 | 85 % CL203 | 93 % CL203 | approximately two-fold | 
